The record followed here is publication doi:10.1101/2025.09.10.675359.

In the data set the target is recombinant human CD4 (rCD4) (human, UniProt P01730 26-396). The experiment in a line: BLI. Background: In BLI a coated tip is dipped into the sample, and binding shifts an interference pattern.

B1: Apt62 (Aptamer 62) (structured_DNA)
DNA: ATCCAGAGTGACGCAGCACCACCACCGTACAATTCGCTTTCTTTTTTCATTACCTACTCTGGCTTTTT
For B1, the dissociation constant Kd (in general, the constant that tells how readily two partners part at equilibrium) came out at 536 nM.
